Measured values taken from patent US8951962B2, “Modified exendins and exendin agonists” (priority 1999, dated 2015).
No end group written: not given here. PEG = not defined here

Legend:
[1] = target: T1, GLP-1 receptor (RINm5f membranes) (Rattus norvegicus, UniProt P32301); experiment: Cyclase activation study (GLP-1 Cyclase), cAMP SPA immunoassay on RINm5f membranes; assay type: biochemical; details: read-out: GLP-1 Cyclase EC50, 20 minutes at 37° C., supernatant cAMP
T1 construct: host or cells: RINm5f cells (membranes/homogenate)
T1 sequence (P32301 22-463): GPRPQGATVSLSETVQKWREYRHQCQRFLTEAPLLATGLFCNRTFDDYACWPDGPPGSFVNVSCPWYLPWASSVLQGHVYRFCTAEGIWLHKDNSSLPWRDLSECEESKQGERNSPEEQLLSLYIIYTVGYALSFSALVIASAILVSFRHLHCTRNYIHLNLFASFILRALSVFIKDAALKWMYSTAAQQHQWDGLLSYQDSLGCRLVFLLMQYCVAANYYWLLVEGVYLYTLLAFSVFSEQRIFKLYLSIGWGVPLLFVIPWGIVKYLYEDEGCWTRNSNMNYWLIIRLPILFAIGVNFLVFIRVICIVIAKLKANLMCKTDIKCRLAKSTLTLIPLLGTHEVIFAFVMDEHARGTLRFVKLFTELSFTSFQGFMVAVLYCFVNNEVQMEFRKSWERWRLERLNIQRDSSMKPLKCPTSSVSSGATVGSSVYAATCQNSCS
Procedure: All other peptides were prepared using synthesis methods such as those described herein. All chemicals were of the highest commercial grade. The cAMP SPA immunoassay was purchased from Amersham. The radioligands were purchased from New England Nuclear (Boston, Mass.). RINm5f cells (American Type Tissue Collection, Rockville, Md.) were grown in DME/F12 medium containing 10% fetal bovine serum and 2 mM L-glutamine. […] Cells were grown to confluence then harvested and homogenized using on a Polytron homogenizer. Cell homogenates were stored frozen at −70° C. until used.
Membranes and peptides was combined in […] of assay buffer in 96 well filter-bottom plates (Millipore Corp., Bedford, Mass.). After 20 minutes incubation at 37° C., the assay was terminated by transfer of supernatant by filtration into a fresh 96 well plate using a Millipore vacuum manifold. Supernatant cAMP contents were quantitated by SPA immunoassay. Peptide samples were run in the assay as triplicate points at 7 dilutions over a concentration range of 10^−6M to 10^−12M to generate response curves. The biological activity of a particular sample was expressed as an EC50 value calculated as described above.

[2] = tested on: NIH:Swiss mice; experiment: Food intake (appetite suppression) in normal mice; assay type: in vivo; details: inhibition of food intake over 30 min, intraperitoneal injection, food deprived NIH:Swiss mice
Procedure: All mice (NIH:Swiss mice) were housed in a stable environment of 22 (±2)° C., 60 (±10) % humidity and a 12:12 light:dark cycle; with lights on at 0600. […] All experiments were conducted between the hours of 0700 and 0900.

[3] = HPLC analysis of plasma for circulating metabolites after large intravenous doses; assay type: in vivo; details: plasma of animals after large intravenous doses

Row | Substance | EC50 [1] | Appetite Suppression ED50 [2] | plasma circulating metabolites (HPLC) [3]
1 | HGEGTFTSDLSRQMEEEAVRLFIEWLRNGK(PEG)PSSGAPPPS-NH2 [230] (not fully specified; PEG linker; C-terminal amide) [compound 230] | 157 nM |  | 
2 | HGEGTFTSDLSRQMEEEAVRLFIEWLRNGK(PEG)PSSGAPPPS-NH2 [224] (not fully specified; PEG linker; C-terminal amide) [compound 224] | 3.22 nM | weak | 
3 | HGEGTFTSDLSRQMEEAVRLFIEWLRNGGPSSGAPPPK(PEG)-NH2 (reading uncertain; also: printed as HGEGTFTSDLSRQMEEAVRLFIEWLRNGGPSSGAPPPK(PEG)-NH2) [compound 229] | 60.4 nM | 0.0145 mg/kg | 
4 | GLP-1 [7-36]NH2 |  |  | subpeptide degradants
5 | amylin: peptide hormone studied for comparison of plasma degradation (KCNTATCATQRLANFLVHSSNNFGAILSSTNVGSNTY; Islet amyloid polypeptide; UniProt P10997 34-70, looked up) |  |  | subpeptide degradants
